Reference: patent publication US20210267930A1, “MODIFIED ANTIBODY-ALBUMIN NANOPARTICLE COMPLEXES FOR CANCER TREATMENT” (Mayo Foundation for Medical Education and Research, priority 2016, published 2021)
Blank lines part the entries; values can stand above or below the molecule they belong to.

How the values were obtained:
[1] = tested on: antibody complexation with ABX (bevacizumab); assay: Peptide competition assay on nanoparticle formation with bevacizumab; details: 10-fold molar excess of peptide
Procedure: Peptides were added at a 10-fold molar excess compared to antibody. Diameter was measured using a Malvern Nanosizer at a 1:200 dilution.
A similar experiment was performed using bevacizumab (FIG. 14B).

[2] = target: CD20 (membrane bound, on Daudi cells) (human) (UniProt P11836); assay: flow cytometry of Daudi cells, isotype control (negative control)
[3] = target: CD20 (membrane bound, on Daudi cells) (human) (UniProt P11836); assay: flow cytometry on Daudi cells (negative control)
full HSA protein = full HSA protein (Homo sapiens, UniProt P02768); assay: Biacore surface plasmon resonance, antibody peptide binding to HSA
Description: FIG. 13B represents binding of bevacizumab variable peptide 1 (SEQ ID NO.: 7) to HSA.
(§1) The sequence of the variable region of the heavy chain where the binding site is located is provided in FIG. 13F for both bevacizumab (SEQ ID NO.: 1) and rituximab (SEQ ID NO.: 2). The 19-AA region of interest is underlined for bevacizumab (SEQ ID NO.: 8—[…]) and rituximab (SEQ ID NO.: 10—[…]), and share about 80% identity. FIG. 13G provides the sequences from each antibody that bind HSA.

[4] = tested on: rituximab, trastuzumab, bevacizumab, and muromonab; assay: Biacore surface plasmon resonance, albumin peptide library against antibodies; format: binding; details: peptides at 50-1.25 μg/mL in HBS running buffer
Procedure: (§2) An albumin peptide library was constructed with 18 amino acid peptides, each containing a 6 amino acid overlap, and each albumin peptide was run against rituximab fixed on a CMS chip. Peptides were suspended to 5-10 mg/mL in HBS-EP plus running buffer. Water insoluble peptides were dissolved in 10% DMSO (Sigma-Aldrich, St. Louis, Mo.). Rituximab was immobilized onto Biacore CMS (GE Healthcare, Chicago, Ill.) chips via amine coupling. Biacore X-100 (GE Healthcare, Chicago, Ill.) was used to screen the albumin peptide libraries over immobilized rituximab. Peptides were screened from 1-50 μg/mL with an exposure time of 120 seconds. Biacore X100 software was used to determine binding kinetics.
Peptides were run at 50, 25, 10, 5, 2.5, 1.25 μg/mL in HBS running buffer. Dissociation constants were determined by Biacore Evaluation Software. […] Diana, F. J., Veronich, K. & Kapoor, A. L. Binding of nonsteroidal anti-inflammatory agents and their effect on binding of racemic warfarin and its enantiomers to human serum albumin. J Pharm Sci 78, 195-199 (1989); Sudlow, G., Birkett, D. J. & Wade, D. N. The characterization of two specific drug binding sites on human serum albumin. Mol Pharmacol 11, 824-832 (1975).

[5] = target: CD20 (membrane bound, on Daudi cells) (human) (UniProt P11836); assay: blocking assay by flow cytometry: Daudi cells pre-treated with lab-made AR160, then stained with labelled anti-human CD20 (the blocked antibody)
[6] = target: CD20 (membrane bound, on Daudi cells) (human) (UniProt P11836); assay: blocking assay by flow cytometry: Daudi cells pre-treated with pharmacy-made AR160 batch 1, then stained with labelled anti-human CD20 (the blocked antibody)
[7] = target: CD20 (membrane bound, on Daudi cells) (human) (UniProt P11836); assay: flow cytometry, Daudi cells stained with Alexa-fluor 488 AR160 alone (middle panel, upper right quadrant)
[8] = target: CD20 (membrane bound, on Daudi cells) (human) (UniProt P11836); assay: flow cytometry on Daudi cells, ABX labelled with Alexa fluor 488
[9] = target: CD20 (membrane bound, on Daudi cells) (human) (UniProt P11836); assay: flow cytometry, Daudi cells stained with Alexa-fluor 488 AR160 and PE anti-human CD19 (right panel, upper left quadrant)
[10] = target: CD20 (membrane bound, on Daudi cells) (human) (UniProt P11836); assay: flow cytometry, Daudi cells stained with Alexa-fluor 488 AR160 and PE anti-human CD19 (right panel, upper right quadrant)
[11] = target: CD20 (membrane bound, on Daudi cells) (human) (UniProt P11836); assay: blocking assay by flow cytometry: Daudi cells pre-treated with AR160, washed, stained with PE-mouse anti-human CD20 (the blocked antibody)
CD20 = target: T1, CD20 (Homo sapiens, UniProt P11836); assay: Blocking of PE-mouse anti-human CD20 binding to CD20+ Daudi cells (flow cytometry); format: cell-based; details: Daudi cells pre-incubated with test article
T1 construct: host or cells: Daudi
T1 sequence (P11836 1-297): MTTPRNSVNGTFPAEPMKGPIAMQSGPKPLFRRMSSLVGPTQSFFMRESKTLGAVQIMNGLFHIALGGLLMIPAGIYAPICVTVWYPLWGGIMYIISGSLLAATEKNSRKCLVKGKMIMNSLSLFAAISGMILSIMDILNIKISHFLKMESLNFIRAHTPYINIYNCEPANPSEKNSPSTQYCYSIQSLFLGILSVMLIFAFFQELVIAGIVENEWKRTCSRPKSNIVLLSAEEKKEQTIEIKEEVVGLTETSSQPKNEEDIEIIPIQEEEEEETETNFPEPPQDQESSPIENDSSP
Procedure: After incubation, the cells were washed and stained with PE-mouse anti-human CD20 and enumerated by flow cytometry.

CD20+ Daudi cells = assay: In vitro toxicity assay, EdU proliferation of Daudi cells; format: cell-based, human; details: rituximab 0-200 μg/mL overnight
Procedure: The level of proliferation was determined by staining cells with FITC labeled anti-EdU. The proliferation index was calculated by normalization to the untreated positive control.
Cell proliferation was measured with EdU, a thymidine analog, that was detected with a FITC conjugated anti-EdU and enumerated by flow cytometry.
The human B-cell lymphoma line, Daudi, (ATCC Manassa, Va.) were cultured in RPMI with 1% penicillin, streptomycin and glutamine (PSG) and 10% FBS. Cells were harvested and plated at 0.2×10^6 cells per well in 24 well plates. […] To measure proliferation, the Click-iT EdU (Molecular Probes, Eugene, Oreg.) kit was utilized. […] The cells were permeabilized with 1% saponin and intercalated EdU was labeled with a FITC-conjugated antibody. The proliferation index was determined by dividing the FITC positive cells from each treatment by the maximum proliferation of untreated EdU labeled cells.

[12] = tested on: Daudi human lymphoma cells; assay: Daudi human lymphoma xenograft tumor efficacy; format: in vivo, athymic nude mice; details: intravenous
Procedure: To test tumor efficacy, 5×10^6 Daudi human lymphoma cells were implanted into the right flank of athymic nude mice (Harlan Sprague Dawley, Indianapolis, Ind.). […] Tumor size was monitored 2-3 times/week and tumor volume was calculated with the following equation: (length*width^2)/2. Mice were sacrificed when the tumor size equaled 10% of the mouse body weight, or about 2500 mm^3. The day 10 percent change from baseline was calculated as follows: [(tumor size on treatment day-tumor size on day 10)/tumor size on treatment day]*100. Kaplan Meier curves were generated and median survival was calculated using GraphPad Prism software (GraphPad Software, Inc, La Jolla, Calif.).

ABRAXANE® (ABX) = target: T2, ABRAXANE® (ABX) (Homo sapiens, UniProt P02768); assay: Binding of antibody to ABX, dissociation constant
T2 construct: purchased Celgene, Summit, N.J

[13] = target: CD20 (membrane bound, on Daudi cells) (human) (UniProt P11836); assay: blocking assay by flow cytometry: Daudi cells pre-treated with ABX, then stained with labelled anti-human CD20
[14] = target: CD20 (membrane bound, on Daudi cells) (human) (UniProt P11836); assay: blocking assay by flow cytometry: Daudi cells pre-treated with ABX, washed, stained with PE-mouse anti-human CD20
HSA peptide 4 = target: T3, HSA peptide 4 (Homo sapiens, UniProt P02768); assay: Biacore surface plasmon resonance, antibody binding to HSA peptide 4
T3 construct: An albumin peptide library was constructed with 18 amino acid peptides
Procedure: as §2, §1

HSA peptide 40 = HSA peptide 40 (Homo sapiens, UniProt P02768); assay: Biacore surface plasmon resonance, antibody binding to HSA peptide 40
Procedure: as §2, §1

[15] = target: T4, human serum albumin (HSA) (human, UniProt P02768 25-609); assay: SPR (Biacore) of antibody variable-region peptides with full HSA
T4 construct: also called full HSA protein

Molecule: Bev Peptide 1: bevacizumab peptide, amino acids 111-125, SEQ ID NO.: 7 (DTAVYYCAKYPHYYGSSHWYF)
- effect on particle size increase indicative of antibody complexation with ABX [1]: prevent the 30 nm increase in particle size

Molecule: muromonab peptide: peptide from muromonab corresponding to the albumin-binding region; probably SEQ ID NO.: 12 (DDHYCLDYWGQGTTLTVSSA)
- binding to the full HSA protein (full HSA protein): did not bind

Molecule: rituximab
- inhibition of subsequent binding of anti-human CD20 antibody (CD20): prohibit subsequent binding of the anti-human CD20 antibody
- toxicity to Daudi cells (CD20+ Daudi cells): not toxic
- median survival ([12]; RIT 12 mg/kg): 8 days
- mice having responses by day 10 ([12]; RIT 12 mg/kg): 0%
- percentage of mice alive at day 10 ([12]; RIT 12 mg/kg): 12%
- median survival ([12]; RIT 18 mg/kg): 10.5 days
- mice having responses by day 10 ([12]; RIT 18 mg/kg): 0%
- percentage of mice alive at day 10 ([12]; RIT 18 mg/kg): 38%
- binding affinity to ABX (ABRAXANE® (ABX)): bind with a high affinity
- dissociation constant for ABX (ABRAXANE® (ABX)): in the picomolar range

Molecule: ABRAXANE® (albumin-bound paclitaxel nanoparticles) (from UniProt P02768 25-609)
- % cells in the CD20+ gate after pre-treatment [13]: 82.9%
- % cells in the CD20+ gate after pre-treatment [14]: 82.9%

Molecule: muromonab
- binding to HSA peptide 4 (HSA peptide 4): bound
- binding to HSA peptide 40 (HSA peptide 40): bound

Molecule: DDHYCLDYWGQGTTLTVSSA [muromonab peptide]
- binding result [15]: no binding

Further lines, with some results ahead:

- % cells in the CD20+ gate [2]: 6.2%
- % positive cells [3]: 6.2%
Molecule: isotype control antibody

- binding to the antibodies [4]: found to bind the antibodies
Molecule: HSA peptide 40: HSA amino acids 455-472, SEQ ID NO.: 5; maps to the Sudlow II site
- effect on particle size increase indicative of antibody complexation with ABX [1]: prevent the 30 nm increase in particle size

- % cells in the CD20+ gate after pre-treatment [5]: 6.6%
- % cells in the CD20+ gate after pre-treatment [6]: 8.2%
- % of cells in the AR160+ CD19+ quadrant [7]: 15.8%
- % positive cells [8]: 75%
- % of cells in the AR160+ CD19- quadrant [9]: 3.95%
- % of cells in the AR160+ CD19+ quadrant [10]: 73.8%
- % cells in the CD20+ gate after pre-treatment [11]: 6.6%
Molecule: AR160 (rituximab-albumin-paclitaxel nanoparticle complex) (from UniProt P02768 25-609)

- binding affinity to ABX (ABRAXANE® (ABX)): bind with a high affinity
Molecule: bevacizumab
